# Experimental data reported in patent publication US20190375823A1 (Zymeworks, published 2019).
# T1: CD19 on Raji B cells (UniProt P15391 20-556, limits assumed)
# T1 construct: whole, on cells; also called Raji CD19 B cells
# T1 sequence (looked up): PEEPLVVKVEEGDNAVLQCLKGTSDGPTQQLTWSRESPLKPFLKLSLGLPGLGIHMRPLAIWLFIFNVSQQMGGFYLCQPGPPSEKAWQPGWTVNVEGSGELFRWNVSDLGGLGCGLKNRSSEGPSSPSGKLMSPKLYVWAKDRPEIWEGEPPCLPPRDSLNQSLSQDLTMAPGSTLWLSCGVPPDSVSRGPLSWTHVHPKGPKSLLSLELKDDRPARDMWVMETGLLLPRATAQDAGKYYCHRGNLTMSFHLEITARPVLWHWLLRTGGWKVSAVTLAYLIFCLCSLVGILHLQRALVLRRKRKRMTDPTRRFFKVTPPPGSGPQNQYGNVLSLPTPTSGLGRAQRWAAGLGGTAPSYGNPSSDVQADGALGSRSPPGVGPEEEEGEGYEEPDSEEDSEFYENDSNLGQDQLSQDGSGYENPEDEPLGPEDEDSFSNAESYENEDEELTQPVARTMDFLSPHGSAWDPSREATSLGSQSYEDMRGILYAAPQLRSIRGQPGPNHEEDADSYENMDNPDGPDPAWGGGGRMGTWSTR
# B1: Albumin based Transporter polypeptide 1-Ver 1 (ABH1 fragment, albumin 1:293) (other)
# chain: DAHKSEVAHRFKDLGEENFKALVLIAFAQYLQQCPFEDHVKLVNEVTEFAKTCVADESAENCDKSLHTLFGDKLCTVATLRETYGEMADCCAKQEPERNECFLQHKDDNPNLPRLVRPEVDVMCTAFHDNEETFLKKYLYEIARRHPYFYAPELLFFAKRYKAAFTECCQAADKAACLLPKLDELRDEGKASSAKQRLKCASLQKFGERAFKAWAVARLSQRFPKAEFAEVSKLVTDLTKVHTECCHGDLLECADDRADLAKYICENQDSISSKLKECCEKPLLEKSHCIAEV
# notes: also called ABH1 transporter polypeptide A; ABH1 fragment 1
# B2: V1093 (bispecific antibody)
# anti-CD19 scFv fused to the N terminus of transporter polypeptide 1 (albumin 1-337): DIQLTQSPASLAVSLGQRATISCKASQSVDYDGDSYLNWYQQIPGQPPKLLIYDASNLVSGIPPRFSGSGSGTDFTLNIHPVEKVDAATYHCQQSTEDPWTFGGGTKLEIKGGGGSGGGGSGGGGSQVQLQQSGAELVRPGSSVKISCKASGYAFSSYWMNWVKQRPGQGLEWIGQIWPGDGDTNYNGKFKGKATLTADESSSTAYMQLSSLASEDSAVYFCARRETTTVGRYYYAMDYWGQGTTVTVSSGGSDAHKSEVAHRFKDLGEENFKALVLIAFAQYLQQCPFEDHVKLVNEVTEFAKTCVADESAENCDKSLHTLFGDKLCTVATLRETYGEMADCCAKQEPERNECFLQHKDDNPNLPRLVRPEVDVMCTAFHDNEETFLKKYLYEIARRHPYFYAPELLFFAKRYKAAFTECCQAADKAACLLPKLDELRDEGKASSAKQRLKCASLQKFGERAFKAWAVARLSQRFPKAEFAEVSKLVTDLTKVHTECCHGDLLECADDRADLAKYICENQDSISSKLKECCEKPLLEKSHCIAEVENDEMPADLPSLAADFVESKDVCKNYAEAKDVFLGMFLYEYARA
# transporter polypeptide 2 (albumin 342-585) with anti-CD3 scFv at the C terminus: not shown
# B3: v1378: AlbuCORE_1 (ABH2) with anti-HER3 at the N terminus of fragment 1 and anti-HER2 (4D5) at the N terminus of fragment 2 (bispecific antibody)
# chain 1: QVQLQESGGGLVKPGGSLRLSCAASGFTFSSYWMSWVRQAPGKGLEWVANINRDGSASYYVDSVKGRFTISRDDAKNSLYLQMNSLRAEDTAVYYCARDRGVGYFDLWGRGTLVTVSSASTGGGGSGGGGSGGGGSQSALTQPASVSGSPGQSITISCTGTSSDVGGYNFVSWYQQHPGKAPKLMIYDVSDRPSGVSDRFSGSKSGNTASLIISGLQADDEADYYCSSYGSSSTHVIFGGGTKVTVLGGGSDAHKSEVAHRFKDLGEENFKALVLIAFAQYLQQCPFEDHVKLVNEVTEFAKTCVADESAENCDKSLHTLFGDKLCTVATLRETYGEMADCCAKQEPERNECFLQHKDDNPNLPRLVRPEVDVMCTAFHDNEETFLKKYLYEIARRHPYFYAPELLFFAKRYKAAFTECCQAADKAACLLPKLDELRDEGKASSAKQRLKCASLQKFGERAFKAWAVARLSQRFPKAEFAEVSKLVTDLTKVHTECCHGDLLECADDRADLAKYICENQDSISSKLKECCEKPLLEKSHCIAEVENDEMPADLPSLAADFVESKDVCKNYAEAKDVFLGMFLYEYARA
# chain 2: not shown
# notes: also called variant 1378; anti-Her3xHer2 ABH2
# Assays:
# [1] = biological target: the molecule itself; experiment: native gel after co-expression (1:1 DNA level)
# CD19 on Raji B cells = biological target: T1, CD19 on Raji B cells; experiment: FACS on Raji cells (CD19)
# Human FcRn (hFcRn) = biological target: T2, Human FcRn (hFcRn) (human, UniProt P55899 24-297; P61769 21-119, limits assumed); experiment: SPR, hFcRn immobilized, v1378 flowed over at pH 6.0
# T2 construct: also called neonatal Fc receptor
# T2 sequence (P55899 24-297 limits assumed, chain 1 of 2): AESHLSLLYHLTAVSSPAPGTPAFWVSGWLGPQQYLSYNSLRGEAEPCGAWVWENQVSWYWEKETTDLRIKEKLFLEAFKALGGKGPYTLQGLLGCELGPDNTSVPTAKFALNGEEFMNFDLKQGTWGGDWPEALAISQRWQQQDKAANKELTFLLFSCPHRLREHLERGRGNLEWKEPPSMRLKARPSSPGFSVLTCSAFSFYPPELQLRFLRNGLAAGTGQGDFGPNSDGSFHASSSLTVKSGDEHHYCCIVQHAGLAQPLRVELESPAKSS
# T2 sequence (P61769 21-119 limits assumed, chain 2 of 2): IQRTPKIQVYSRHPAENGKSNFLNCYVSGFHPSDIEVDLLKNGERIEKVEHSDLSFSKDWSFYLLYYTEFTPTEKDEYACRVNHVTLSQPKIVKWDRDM
# From the text: Methods are identical to Example 2, except the directionality of the assay was reversed.
binder,measurement,setting,value
B1,binding result,[1],no binding
B2,Kd,CD19 on Raji B cells,49 nM
B3,Kd,Human FcRn (hFcRn),970 nM
